Measurements published in US8114974B2, “Engineered microorganisms with enhanced fermentation activity” (Verdezyne, Inc., priority 2009, dated 2012).

How the values were obtained:
[1] = system: xylose isomerase; test: Heterologous xylose isomerase expression in yeast (active yes/no); assay type: cell-based, Saccharomyces cerevisiae; conditions: xylose isomerase of the donor organism expressed in engineered yeast (S. cerevisiae)
[2] = system: xylose isomerase; test: In vitro xylose isomerase activity assay (sorbitol dehydrogenase/NADH coupled, A340; Km, specific activity, Ki for xylitol); assay type: biochemical, Saccharomyces cerevisiae
Procedure: About 20 μg of soluble whole cell extract was incubated in the presence of 100 mM Tris, pH 7.5, 10 mM MgCl2, 0.15 mM NADH (Sigma, St. Louis, Mo.), and about 2 U sorbitol dehydrogenase (Roche) at about 30° C. […] A Beckman DU-800 was utilized with an Enzyme Mechanism software package (Beckman Coulter, Inc.), and the change in the A340 was monitored for 2-3 minutes.
Approximately 20 μg of soluble whole cell extract from each transformed cell line, prepared using Y-PER plus reagent as described above, was incubated in a solution containing about 100 mM Tris, pH 7.5, 10 mM MgCl ? 2, 0.15 mM NADH (Sigma, St. Louis, Mo.), and 2 U Sorbitol Dehydrogenase (SDH) (Roche, Indianapolis, Ind.) at about 30° C. […] A Beckman DU-800 spectrophotometer was utilized with an Enzyme Mechanism software package (Beckman Coulter, Inc, Brea, Calif.), and the change in the A340 was monitored for 2-3 minutes.
Approximately 20 μg of soluble whole cell extract from each transformed cell line was prepared using Y-PER plus reagent as described above was incubated in a solution containing about 100 mM Tris, pH 7.5, 10 mM MgCl2, 0.15 mM NADH (Sigma, St. Louis, Mo.), and 2 U sorbitol dehydrogenase (SDH) (Roche, Indianapolis, Ind.) at about 30° C. […] A Beckman DU-800 spectrophotometer was utilized with an Enzyme Mechanism software package (Beckman Coulter, Inc, Brea, Calif.), and the change in the A340 was monitored for 2-3 minutes.
Approximately 20 μg of soluble whole cell extract from each transformed cell line was prepared using Y-PER plus reagent as described above was incubated in a solution containing about 100 mM Tris, pH 7.5, 10 mM MgCl ? .2, 0.15 mM NADH (Sigma, St. Louis, Mo.), and 2 U Sorbitol Dehydrogenase (SDH) (Roche, Indianapolis, Ind.) at about 30° C. […] A Beckman DU-800 spectrophotometer was utilized with an Enzyme Mechanism software package (Beckman Coulter, Inc, Brea, Calif.), and the change in the A340 was monitored for 2-3 minutes.
The Clostridiales enzyme was further characterized at 1974 μg to confirm the presence of activity.

[3] = system: 2-keto-3-deoxygluconate-6-phosphate aldolase (EDA); test: EDA activity assay with saturating amounts of E. coli EDD extract (LDH/NADH coupled); assay type: biochemical, Saccharomyces cerevisiae; conditions: for EDA activity (comparison in words): saturating E. coli EDD extract
Procedure: EDA genes isolated from a variety of sources were expressed in yeast and evaluated independently of EDA activity, to identify EDA activities suitable of inclusion in an engineered yeast strain. […] The activity of integrated EDAs in Thermosacc-Gold haploids, were also evaluated in this manner. The table below describes oligonucleotide primers used to isolate the various EDA genes.
EDA extracts were prepared using the following protocol. Day 1
Grow 5 ml LB-Kan preps of BF1055 (BL21/DE3 with pET26b empty vector) and BF1706 (BL21DE3 with pET26b+E. coli EDD).
Grow 50 ml LB-Kan prep of BF1055, 2% (v/v) inoculate.
Grow 50 ml prep of BF1706 using Novagen's Overnight Express (46.45 ml LB-Kan, 1 ml solution 1, 2.5 ml solution 2, 50 μl solution 3, 5 μl of 1M MnCl2, 50 μl of 0.5 M FeCl2), 2% (v/v) inoculate.
Inoculate to OD600 of 0.2.
EDD extractions (adapted from Chemyan et al, Protein Science 16:2368-2377, 2007): • 1) Pellet cells in 50 ml conical tubes, 4° C., 3,000 rpm, 10 mins, discard supernatant. • 2) Resuspend in 2 ml degassed PDGH buffer (20 mM MES pH 6.5, 30 mM NaCl, 5 mM • MnCl2, 0.5 mM FeCl2, 10 mM 2-mercaptoethanol, 10 mM cysteine, sparged with nitrogen gas). Move to hungate tube. • 3) Add 0.1% Triton X-100, 10 ng/ml DNase, 10 μg/ml PMSF, 10 μg/ml TAME (Nα-(p-toluene sulfonyl)-L-arginine methyl ester), 100 μg/ml lysozyme. • 4) Sparge hungate tube with nitrogen gas, cap and seal. Incubate 2 hours at 37° C., swirl occasionally. • 5) Clarify by centrifugation in 2-ml tube, 4° C., 10 mins, 14,000 rpm. Keep supernatant. • 6) Treat with 150 mM pyruvate and 10 mM sodium cyanoborohydride (work in hood) to inactivate aldolase activity. Incubate 30 mins at room temperature. • 7) During incubation, pre-equilibrate PD-10 column from GE • a. Remove top cap, pour off storage buffer. • b. Cut off bottom tip, fit in 50 ml conical with adapter. • c. Pour 5 ml of 20 mM MES buffer, pH 6.5 (total of 5 times). Discard flow-through. • 8) Run sample through column, then add MES buffer to a total of 2.5 ml volume added. Discard flow-through. • 9) Run 3.5 ml 20 mM MES pH 6.5 buffer to elute protein. Discard column in appropriate waste receptacle. • 10) Perform Bradford assay (1:10 or 1:20 dilution). EDA extractions: • 1) Spin down in 50 ml conicals, 4° C., 3,400 rpm, 5 mins. Wash 2× with 25 ml water. • 2) Resuspend in 1 ml lysis buffer (50 mM Tris-HCl, pH 7, 10 mM MgCl2, 1× protease inhibitor. […]
Each reaction contains 50 mM Tris-HCl, pH 7, 10 mM MgCl2, 0.15 mM NADH, 15 μg LDH, saturating amounts of EDD determined empirically (usually ˜100 μg), 1-50 μg EDA (depending on level of activity), and 1 mM 6-phosphogluconate. Reactions are started by the addition of 6-phosphogluconate and monitored for 5 mins at 30° C.

[4] = chimeric variants, soluble whole cell extract, xylose 40-500 mM

Question: “Streptomyces rubiginosus: xylose isomerase of this donor organism” was tested. Which “Active? (yes/no)” value [1] did it give?
Answer: No

Question: “Actinoplanes missouriensis: xylose isomerase of this donor organism” was tested. Which “Active? (yes/no)” value [1] did it give?
Answer: No

Question: With “Thermus thermophilus: xylose isomerase of this donor organism” as the molecule, how does the “Active? (yes/no)” value [1] read?
Answer: Yes

Question: For “Bacteroides thetaiotaomicron: xylose isomerase of this donor organism”, which “Active? (yes/no)” value [1] is on record?
Answer: Yes

Question: With “Piromyces: xylose isomerase from Piromyces strain E2 (SEQ ID NO: 35)” as the molecule, how does the “Specific Activity” value ([2]; G179A mutant kinetic assays, xylose 40-500 mM) read?
Answer: 2.02 µmol/min/mg

Question: And the “Specific Activity” value [2, 4]?
Answer: 2.02 µmol/min/mg

Question: What about the “Specific Activity” value ([2]; soluble whole cell extract, xylose 40-500 mM, 30° C., pH 7.5) of the same molecule?
Answer: 2.02 µmol/min/mg

Question: And the “Active? (yes/no)” value [1]?
Answer: Yes

B1: Clostridium phytofermentans: xylose isomerase of this donor organism (protein)
chain: MKNYFPNVPEVKYEGPNSTNPFAFKYYDANKVVAGKTMKEHCRFALSWWHTLCAGGADPFGVTTMDRTYGNITDPMELAKAKVDAGFELMTKLGIEFFCFHDADIAPEGDTFEESKKNLFEIVDYIKEKMDQTGIKLLWGTANNFSHPRFMH
modifications: Clostridium phytofermentans
notes: xylose isomerase of this donor organism
Question: B1 was tested. Which “Active? (yes/no)” value [1] did it give?
Answer: Yes

B2: R. flavefaciens, FD-1 XI: xylose isomerase of Ruminococcus flavefaciens FD1 (ZP_06143883.1, SEQ ID NO: 110) (protein, listed as Ruminococcus flavefaciens)
chain: MEFFKNISKIPYEGKDSTNPLAFKYYNPDEVIDGKKMRDIMKFALSWWHTMGGDGTDMFGCGTADKTWGENDPAARAKAKVDAAFEIMQKLSIDYFCFHDRDLSPEYGSLKDTNAQLDIVTDYIKAKQAETGLKCLWGTAKCFDHPRFMHGAGTSPSADVFAFSAAQIKKALESTVKLGGTGYVFWGGREGYETLLNTNMGLELDNMARLMKMAVEYGRSIGFKGDFYIEPKPKEPTKHQYDFDTATVLGFLRKYGLDKDFKMNIEANHATLAQHTFQHELCVARTNGAFGSIDANQGDPLLGWDTDQFPTNIYDTTMCMYEVIKAGGFTNGGLNFDAKARRGSFTPEDIFYSYIAGMDAFALGYKAASKLIADGRIDSFISDRYASWSEGIGLDIISGKADMAALEKYALEKGEVTDSISSGRQELLESIVNNVIFNL
Question: B2 was tested. Which “xylose isomerase activity (slope) of candidate enzymes (FIG. 25)” value ([2]; 100 μg total soluble crude extract, saturating xylose (500 mM)) did it give?
Answer: highest activity of the candidates tested

Question: And the “specific activity relative to the native XI control activity” value ([2]; Michaelis Mentin plots, xylose between 40 and 500 nM as printed)?
Answer: greater than 2 fold

B3: Codon-optimized EDA from P. aeruginosa: codon-optimized version of the P. aeruginosa EDA gene (protein, UniProt O68283 1-220, looked up)
2-dehydro-3-deoxy-phosphogluco …: MHNLEQKTARIDTLCREARILPVITIDREADILPMADALAAGGLTALEITLRTAHGLTAIRRLSEERPHLRIGAGTVLDPRTFAAAEKAGASFVVTPGCTDELLRFALDSEVPLLPGVASASEIMLAYRHGYRRFKLFPAEVSGGPAALKAFSGPFPDIRFCPTGGVSLNNLADYLAVPNVMCVGGTWMLPKAVVDRGDWAQVERLSREALERFAEHRRH
modifications: codon-optimized gene
Question: B3 was tested. Which “EDA activity (comparison in words)” value ([3]; first experiment) did it give?
Answer: slight improvement over the native sequence

B4: XI-Rp5: chimera: first 5 amino acids of Piromyces xylose isomerase fused to Ruminococcus xylose isomerase (SEQ ID NO. 56) (protein)
chain: MAKEYFSNIGKIQYQGPKSTDPLSFKYYNPEEVINGKTMREHLKFALSWWHTMGGDGTDMFGCGTTDKTWGQSDPAARAKAKVDAAFEIMDKLSIDYYCFHDRDLSPEYGSLKATNDQLDIVTDYIKEKQGDKFKCLWGTAKCFDHPRFMHGAGTSPSADVFAFSAAQIKKALESTVKLGGNGYVFWGGREGYETLLNTNMGLELDNMARLMKMAVEYGRSIGFKGDFYIEPKPKEPTKHQYDFDTATVLGFLRKYGLDKDFKMNIEANHATLAQHTFQHELRVARDNGVFGSIDANQGDVLLGWDTDQFPTNIYDTTMCMYEVIKAGGFTNGGLNFDAKARRGSFTPEDIFYSYIAGMDAFALGFRAALKLIEDGRIDKFVADRYASWNTGIGADIIAGKADFASLEKYALEKGEVTASLSSGRQEMLESIVNNVLFSL
Question: For B4, which Km [2, 4] is on record?
Answer: 66.5 mM

Question: What about the “Specific Activity” value [2, 4] of the same molecule?
Answer: 1.45 µmol/min/mg

B5: E. coli EDA: 2-keto-3-deoxygluconate-6-phosphate aldolase of Escherichia coli expressed in yeast (protein, UniProt P0A955 1-213, looked up)
KHG/KDPG aldolase: MKNWKTSAESILTTGPVVPVIVVKKLEHAVPMAKALVAGGVRVLEVTLRTECAVDAIRAIAKEVPEAIVGAGTVLNPQQLAEVTEAGAQFAISPGLTEPLLKAATEGTIPLIPGISTVSELMLGMDYGLKEFKFFPAEANGGVKALQAIAGPFSQVRFCPTGGISPANYRDYLALKSVLCIGGSWLVPADALEAGDYDRITKLAREAVEGAKL
Question: For B5, which “EDA activity, repeated experiment (FIG. 24)” value ([3]; 100 μg of EDD and 25 μg of EDA cell lysates (5 μg of E. coli EDA), linear range) is on record?
Answer: most active of those EDA's tested

Question: What about the “EDA activity (comparison in words)” value ([3]; first experiment) of the same molecule?
Answer: higher activity as compared to the other EDA activities evaluated herein

Question: And the “EDA activity relative to the EDA from P. aeruginosa” value ([3]; first experiment, E. coli EDA slope outside linear range, underestimated)?
Answer: approximately 16 fold

B6: Escherichia coli: xylose isomerase of this donor organism (protein, UniProt P00944 1-440, looked up)
Xylose isomerase: MQAYFDQLDRVRYEGSKSSNPLAFRHYNPDELVLGKRMEEHLRFAACYWHTFCWNGADMFGVGAFNRPWQQPGEALALAKRKADVAFEFFHKLHVPFYCFHDVDVSPEGASLKEYINNFAQMVDVLAGKQEESGVKLLWGTANCFTNPRYGAGAATNPDPEVFSWAATQVVTAMEATHKLGGENYVLWGGREGYETLLNTDLRQEREQLGRFMQMVVEHKHKIGFQGTLLIEPKPQEPTKHQYDYDAATVYGFLKQFGLEKEIKLNIEANHATLAGHSFHHEIATAIALGLFGSVDANRGDAQLGWDTDQFPNSVEENALVMYEILKAGGFTTGGLNFDAKVRRQSTDKYDLFYGHIGAMDTMALALKIAARMIEDGELDKRIAQRYSGWNSELGQQILKGQMSLADLAKYAQEHHLSPVHQSGRQEQLENLVNHYLFDK
Question: B6 was tested. Which “Active? (yes/no)” value [1] did it give?
Answer: No

B7: Bacillus subtilis: xylose isomerase of this donor organism (protein, UniProt P0CI80 1-445, looked up)
Xylose isomerase: MAQSHSSSINYFGSANKVVYEGKDSTNPLAFKYYNPQEVIGGKTLKEHLRFSIAYWHTFTADGTDVFGAATMQRPWDHYKGMDLAKMRVEAAFEMFEKLDAPFFAFHDRDIAPEGSTLKETNQNLDMIMGMIKDYMRNSGVKLLWNTANMFTNPRFVHGAATSCNADVFAYAAAQVKKGLETAKELGAENYVFWGGREGYETLLNTDLKFELDNLARFMHMAVDYAKEIGYTGQFLIEPKPKEPTTHQYDTDAATTIAFLKQYGLDNHFKLNLEANHATLAGHTFEHELRMARVHGLLGSVDANQGHPLLGWDTDEFPTDLYSTTLAMYEILQNGGLGSGGLNFDAKVRRSSFEPDDLIYAHIAGMDAFARGLKVAHKLIEDRVFEDVIQHRYRSFTEGIGLEIIEGRANFHTLEQYALNHKSIKNESGRQEKLKAILNQYILEV
Question: For B7, which “Active? (yes/no)” value [1] is on record?
Answer: No
